Experiments:
[1] = target: T1, human neonatal Fc receptor (hFcRn) (human, UniProt P55899 24-290; P61769 21-119); assay: phage ELISA pH 7.4
T1 construct: Biotinylated in the ELISA, Octet and yeast assays; also called human FcRn; huFcRn
Procedure: (§1) Approximately 100 μL of biotinylated human FcRn at 2 μg/mL was added to the wells of MAXISORP™ plates coated with 10 μg/mL streptavidin. After washing with PBS plus 0.05% Tween 20 (PBST) five times, phage from the overnight cultures in MES buffer at pH 6.0 or pH 7.4 were added to the plates and incubated at room temperature for 1 hr. A horseradish peroxidase (HRP)-conjugated anti-M13 antibody was used to detect the binding phage, and the plates were scored by a microtiter plate reader using a wavelength in the visible range.
(§2) Binding was assessed by a quantitative enzyme-linked immunoadsorbent assay (ELISA). The ELISA scores reflect binding affinity, with higher scores meaning higher affinity. Typically, scores higher than about 3˜5 indicate binding above background. For library L5, the insertions are between the N169 and G170 according to the numbering in FIG. 2. For libraries 6A and 6B, the insertions are between L143 and T144 according to the numbering in FIG. 2.

[2] = target: T1, human neonatal Fc receptor (hFcRn); assay: phage ELISA pH 6
Procedure: as §1, §2
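Note: higher score means stronger binding and above about 3 to 5 exceeds background.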

Row | Binder | ELISA score [1] | ELISA score [2]
1 | L5 isolate with insertion SEQ ID NO: 439 (other) EPKSCDKTHTCPPCPAPELLGGPSVFLFPPKPKDTLMISRTPEVTCVVVDVSHEDPEVKFNWYVDGVEVHNAKTKPREEQYNSTYRVVSVLTVLHQDWLNGKEYKCKVSNKALPAPIEKTISKAKGQPREPQVYTLPPSRDELTKNQVSLTCLVKGFYPSDIAVEWESNGGCHHKQDQCGGGQPENNYKTTPPVLDSDGSFFLYSKLTVDKSRWQQGNVFSCSVMHEALHNHYTQKSLSLSPGK | 0.6 | 54.9
2 | L5 isolate with insertion SEQ ID NO: 441 (other) EPKSCDKTHTCPPCPAPELLGGPSVFLFPPKPKDTLMISRTPEVTCVVVDVSHEDPEVKFNWYVDGVEVHNAKTKPREEQYNSTYRVVSVLTVLHQDWLNGKEYKCKVSNKALPAPIEKTISKAKGQPREPQVYTLPPSRDELTKNQVSLTCLVKGFYPSDIAVEWESNGGCEATMTWCGGGQPENNYKTTPPVLDSDGSFFLYSKLTVDKSRWQQGNVFSCSVMHEALHNHYTQKSLSLSPGK | 0.6 | 54.7
3 | L5 isolate with insertion SEQ ID NO: 443 (other) EPKSCDKTHTCPPCPAPELLGGPSVFLFPPKPKDTLMISRTPEVTCVVVDVSHEDPEVKFNWYVDGVEVHNAKTKPREEQYNSTYRVVSVLTVLHQDWLNGKEYKCKVSNKALPAPIEKTISKAKGQPREPQVYTLPPSRDELTKNQVSLTCLVKGFYPSDIAVEWESNGGCSRVFKYCGGGQPENNYKTTPPVLDSDGSFFLYSKLTVDKSRWQQGNVFSCSVMHEALHNHYTQKSLSLSPGK | 0.7 | 54.2
4 | L5 isolate with insertion SEQ ID NO: 444 (other) EPKSCDKTHTCPPCPAPELLGGPSVFLFPPKPKDTLMISRTPEVTCVVVDVSHEDPEVKFNWYVDGVEVHNAKTKPREEQYNSTYRVVSVLTVLHQDWLNGKEYKCKVSNKALPAPIEKTISKAKGQPREPQVYTLPPSRDELTKNQVSLTCLVKGFYPSDIAVEWESNGGCHAPQWECGGGQPENNYKTTPPVLDSDGSFFLYSKLTVDKSRWQQGNVFSCSVMHEALHNHYTQKSLSLSPGK | 0.3 | 53.2
5 | L5 isolate with insertion SEQ ID NO: 445 (other) EPKSCDKTHTCPPCPAPELLGGPSVFLFPPKPKDTLMISRTPEVTCVVVDVSHEDPEVKFNWYVDGVEVHNAKTKPREEQYNSTYRVVSVLTVLHQDWLNGKEYKCKVSNKALPAPIEKTISKAKGQPREPQVYTLPPSRDELTKNQVSLTCLVKGFYPSDIAVEWESNGGCPLVRADCGGGQPENNYKTTPPVLDSDGSFFLYSKLTVDKSRWQQGNVFSCSVMHEALHNHYTQKSLSLSPGK | 0.4 | 53.2
6 | L5 isolate with insertion SEQ ID NO: 446 (other) EPKSCDKTHTCPPCPAPELLGGPSVFLFPPKPKDTLMISRTPEVTCVVVDVSHEDPEVKFNWYVDGVEVHNAKTKPREEQYNSTYRVVSVLTVLHQDWLNGKEYKCKVSNKALPAPIEKTISKAKGQPREPQVYTLPPSRDELTKNQVSLTCLVKGFYPSDIAVEWESNGGCMHNEEFCGGGQPENNYKTTPPVLDSDGSFFLYSKLTVDKSRWQQGNVFSCSVMHEALHNHYTQKSLSLSPGK | 0.4 | 53.2
7 | L5 isolate with insertion SEQ ID NO: 447 (other) EPKSCDKTHTCPPCPAPELLGGPSVFLFPPKPKDTLMISRTPEVTCVVVDVSHEDPEVKFNWYVDGVEVHNAKTKPREEQYNSTYRVVSVLTVLHQDWLNGKEYKCKVSNKALPAPIEKTISKAKGQPREPQVYTLPPSRDELTKNQVSLTCLVKGFYPSDIAVEWESNGGCMFETKWCGGGQPENNYKTTPPVLDSDGSFFLYSKLTVDKSRWQQGNVFSCSVMHEALHNHYTQKSLSLSPGK | 1.2 | 52.4
8 | L5 isolate with insertion SEQ ID NO: 449 (other) EPKSCDKTHTCPPCPAPELLGGPSVFLFPPKPKDTLMISRTPEVTCVVVDVSHEDPEVKFNWYVDGVEVHNAKTKPREEQYNSTYRVVSVLTVLHQDWLNGKEYKCKVSNKALPAPIEKTISKAKGQPREPQVYTLPPSRDELTKNQVSLTCLVKGFYPSDIAVEWESNGGCLQNLYVCGGGQPENNYKTTPPVLDSDGSFFLYSKLTVDKSRWQQGNVFSCSVMHEALHNHYTQKSLSLSPGK | 0.4 | 51.6
9 | L5 isolate with insertion SEQ ID NO: 450 (other) EPKSCDKTHTCPPCPAPELLGGPSVFLFPPKPKDTLMISRTPEVTCVVVDVSHEDPEVKFNWYVDGVEVHNAKTKPREEQYNSTYRVVSVLTVLHQDWLNGKEYKCKVSNKALPAPIEKTISKAKGQPREPQVYTLPPSRDELTKNQVSLTCLVKGFYPSDIAVEWESNGGCQTSMKNCGGGQPENNYKTTPPVLDSDGSFFLYSKLTVDKSRWQQGNVFSCSVMHEALHNHYTQKSLSLSPGK | 0.2 | 51.3
10 | L5 isolate with insertion SEQ ID NO: 451 (other) EPKSCDKTHTCPPCPAPELLGGPSVFLFPPKPKDTLMISRTPEVTCVVVDVSHEDPEVKFNWYVDGVEVHNAKTKPREEQYNSTYRVVSVLTVLHQDWLNGKEYKCKVSNKALPAPIEKTISKAKGQPREPQVYTLPPSRDELTKNQVSLTCLVKGFYPSDIAVEWESNGGCNLGHMPCGGGQPENNYKTTPPVLDSDGSFFLYSKLTVDKSRWQQGNVFSCSVMHEALHNHYTQKSLSLSPGK | 0.4 | 51.1
11 | L5 isolate with insertion SEQ ID NO: 452 (other) EPKSCDKTHTCPPCPAPELLGGPSVFLFPPKPKDTLMISRTPEVTCVVVDVSHEDPEVKFNWYVDGVEVHNAKTKPREEQYNSTYRVVSVLTVLHQDWLNGKEYKCKVSNKALPAPIEKTISKAKGQPREPQVYTLPPSRDELTKNQVSLTCLVKGFYPSDIAVEWESNGGCWMWAEECGGGQPENNYKTTPPVLDSDGSFFLYSKLTVDKSRWQQGNVFSCSVMHEALHNHYTQKSLSLSPGK | 1 | 50.5
12 | L5 isolate with insertion SEQ ID NO: 453 (other) EPKSCDKTHTCPPCPAPELLGGPSVFLFPPKPKDTLMISRTPEVTCVVVDVSHEDPEVKFNWYVDGVEVHNAKTKPREEQYNSTYRVVSVLTVLHQDWLNGKEYKCKVSNKALPAPIEKTISKAKGQPREPQVYTLPPSRDELTKNQVSLTCLVKGFYPSDIAVEWESNGGCVHNDKLCGGGQPENNYKTTPPVLDSDGSFFLYSKLTVDKSRWQQGNVFSCSVMHEALHNHYTQKSLSLSPGK | 0.4 | 50.3

The remaining lines, values ahead:

Row | ELISA score [1] | ELISA score [2] | Binder
13 | 0.6 | 49.8 | L5 isolate with insertion SEQ ID NO: 456 (other) EPKSCDKTHTCPPCPAPELLGGPSVFLFPPKPKDTLMISRTPEVTCVVVDVSHEDPEVKFNWYVDGVEVHNAKTKPREEQYNSTYRVVSVLTVLHQDWLNGKEYKCKVSNKALPAPIEKTISKAKGQPREPQVYTLPPSRDELTKNQVSLTCLVKGFYPSDIAVEWESNGGCYPQKEICGGGQPENNYKTTPPVLDSDGSFFLYSKLTVDKSRWQQGNVFSCSVMHEALHNHYTQKSLSLSPGK
14 | 1.8 | 48.2 | L5 isolate with insertion SEQ ID NO: 459 (other) EPKSCDKTHTCPPCPAPELLGGPSVFLFPPKPKDTLMISRTPEVTCVVVDVSHEDPEVKFNWYVDGVEVHNAKTKPREEQYNSTYRVVSVLTVLHQDWLNGKEYKCKVSNKALPAPIEKTISKAKGQPREPQVYTLPPSRDELTKNQVSLTCLVKGFYPSDIAVEWESNGGCPGHEFRCGGGQPENNYKTTPPVLDSDGSFFLYSKLTVDKSRWQQGNVFSCSVMHEALHNHYTQKSLSLSPGK
15 | 0.9 | 47.2 | L5 isolate with insertion SEQ ID NO: 461 (other) EPKSCDKTHTCPPCPAPELLGGPSVFLFPPKPKDTLMISRTPEVTCVVVDVSHEDPEVKFNWYVDGVEVHNAKTKPREEQYNSTYRVVSVLTVLHQDWLNGKEYKCKVSNKALPAPIEKTISKAKGQPREPQVYTLPPSRDELTKNQVSLTCLVKGFYPSDIAVEWESNGGCKWSMTKCGGGQPENNYKTTPPVLDSDGSFFLYSKLTVDKSRWQQGNVFSCSVMHEALHNHYTQKSLSLSPGK
16 | 1.4 | 47 | L5 isolate with insertion SEQ ID NO: 462 (other) EPKSCDKTHTCPPCPAPELLGGPSVFLFPPKPKDTLMISRTPEVTCVVVDVSHEDPEVKFNWYVDGVEVHNAKTKPREEQYNSTYRVVSVLTVLHQDWLNGKEYKCKVSNKALPAPIEKTISKAKGQPREPQVYTLPPSRDELTKNQVSLTCLVKGFYPSDIAVEWESNGGCDWHRMKCGGGQPENNYKTTPPVLDSDGSFFLYSKLTVDKSRWQQGNVFSCSVMHEALHNHYTQKSLSLSPGK
17 | 3.6 | 46.8 | L5 isolate with insertion SEQ ID NO: 463 (other) EPKSCDKTHTCPPCPAPELLGGPSVFLFPPKPKDTLMISRTPEVTCVVVDVSHEDPEVKFNWYVDGVEVHNAKTKPREEQYNSTYRVVSVLTVLHQDWLNGKEYKCKVSNKALPAPIEKTISKAKGQPREPQVYTLPPSRDELTKNQVSLTCLVKGFYPSDIAVEWESNGGCMHSPHACGGGQPENNYKTTPPVLDSDGSFFLYSKLTVDKSRWQQGNVFSCSVMHEALHNHYTQKSLSLSPGK
18 | 0.9 | 46.2 | L5 isolate with insertion SEQ ID NO: 464 (other) EPKSCDKTHTCPPCPAPELLGGPSVFLFPPKPKDTLMISRTPEVTCVVVDVSHEDPEVKFNWYVDGVEVHNAKTKPREEQYNSTYRVVSVLTVLHQDWLNGKEYKCKVSNKALPAPIEKTISKAKGQPREPQVYTLPPSRDELTKNQVSLTCLVKGFYPSDIAVEWESNGGCMMWKVNCGGGQPENNYKTTPPVLDSDGSFFLYSKLTVDKSRWQQGNVFSCSVMHEALHNHYTQKSLSLSPGK
